{"source": "patent US12606638B2", "about": "“Dosing regimens for use with PCSK9 inhibitors” (Sanofi Biotechnology, priority 2013, dated 2026)", "key": {"[1]": {"test_system": "patients with genotype-confirmed hoFH", "conditions": "ezetimibe 10 mg/day added to maximal dose of statins; cited from earlier work"}, "[2]": {"test_system": "free PCSK9", "test": "Phase 1 study: circulating levels of free PCSK9", "type": "in vivo, human", "conditions": "for Free PCSK9 level at end of run-in period: prior to alirocumab treatment, from 152 (FENO) and 151 (EZE) at start of run-in", "from_the_text": "(§1) The primary objective of the study was to assess the pharmacodynamic profile of alirocumab administered either alone or on top of ezetimibe or fenofibrate, based on low density lipoprotein cholesterol (LDL-C)."}, "[3]": {"test_system": "healthy subjects", "test": "Phase 1 study in healthy subjects: pharmacodynamic profile (serum lipid parameters) of alirocumab alone or on top of ezetimibe or fenofibrate", "type": "in vivo, human", "conditions": "for Percent change in LDL-C during the run-in period (Day −29 to Day −1): ezetimibe 10 mg/day or fenofibrate 160 mg/day alone, before alirocumab, value on Day −1, mean (SEM); for Mean percent change in LDL-C from Day −1 baseline to Day 71: additional baseline Day −1 (start of alirocumab injection); for Mean percent change in LDL-C from Day −29 baseline to Day 71: main baseline Day −29 (start of placebo/EZE/FENO run-in), Day 71 = 14 days after 3rd alirocumab dose, 150 mg SC Q4W, N=24", "description": "as §1\nThe study evaluated 72 healthy subjects.\nAlirocumab was administered subcutaneously in the abdomen.\nEzetimibe was formulated as a 10 mg over-encasulated tablet (and matching placebo ezetimibe capsule). Ezetimibe was administered orally.\nFenofibrate was formulated at a 160 mg coated tablet. Fenofibrate was administered orally during a meal.\nThe duration of treatment was as follows.\nThe pharmacodynamic criteria were as follows. The primary endpoint was percent change in calculated serum LDL-C from baseline (D-29). The secondary endpoints were absolute change from baseline in calculated LDL-C, total cholesterol (TC), high density lipoprotein cholesterol (HDL-C), non-HDL-C, triglycerides (TG), apolipoprotein B (ApoB), apolipoprotein A1 (ApoA1), and lipoprotein a (Lp[a]) analyzed in percent and absolute change from baseline.\nThe blood sampling for lipid parameters (ie, LDL-C, TC, HDL-C, non-HDL-C, TG, ApoB, ApoA1, Lp[a]) were performed in the morning, in the fasted condition (at least 10-hours fasted and refrained from smoking), before any drug intake.\nBlood samples were collected at screening; Day −1 of the run-in phase; and Days 8, 15, 22, 29±1, 57±1, 64±1, 71±1, 78±1, 85±1, 99±2, and 120±3 of the treatment phase."}, "[4]": {"conditions": "in vivo"}, "[5]": {"conditions": "in vivo", "remark": "listed apart in the source", "experimental": "Samples for the determination of anti-drug antibody (ADA) levels in serum were collected at Day −28 of the run-in phase; Days 29, 57, 85, and 120 of the treatment phase; and the EOS visit.\nIn neat serum samples, the validated lower limit of detection was approximately 1.5 ng/mL."}, "[6]": {"test_system": "healthy subjects", "test": "Phase 1 study: safety (adverse events, laboratory, vital signs, ECG)", "conditions": "for Patients with any TEAEs, %: N = 24 per group"}, "[7]": {"conditions": "additional baseline Day −1, 14 days after 3rd alirocumab dose"}, "[8]": {"conditions": "listed as Alirocumab 150 mg Q4W + placebo"}, "[9]": {"conditions": "main baseline Day −29, 14 days after 3rd alirocumab dose"}, "[10]": {"conditions": "median, additional baseline Day −1, 14 days after 3rd alirocumab dose"}, "[11]": {"conditions": "median, main baseline Day −29, 14 days after 3rd alirocumab dose"}}, "note": "Where “and” joins values, the source holds several entries; their conditions need not be identical. Equal entries are not always repeated. Where two headings read alike, the source gives them in different places."}
{"compound": "O=C1[C@H](CC[C@H](O)c2ccc(F)cc2)[C@@H](c2ccc(O)cc2)N1c1ccc(F)cc1", "note": "[ezetimibe]", "values": [{"measurement": "Total reduction of LDL-C levels", "setting": "[1]", "result": 27, "unit": "%"}, {"measurement": "Free PCSK9 level at end of run-in period", "setting": "[2]", "result": 142, "unit": "ng/mL"}, {"measurement": "Percent change in LDL-C during the run-in period (Day −29 to Day −1)", "setting": "[3]", "result": "−19.8 (2.1) %"}]}
{"compound": "CC(C)OC(=O)C(C)(C)Oc1ccc(C(=O)c2ccc(Cl)cc2)cc1", "note": "[fenofibrate, reference compound]", "values": [{"measurement": "Free PCSK9 level at end of run-in period", "setting": "[2]", "result": 217, "unit": "ng/mL"}, {"measurement": "Percent change in LDL-C during the run-in period (Day −29 to Day −1)", "setting": "[3]", "result": "−25.9 (3.2) %"}]}
{"compound": "alirocumab", "values": [{"measurement": "AUClast, Geometric Mean", "setting": "[4]; human", "result": "(306) [38.4] mg · day/l"}, {"measurement": "AUClast, Mean ± SD", "setting": "[4]; human", "result": "326 ± 125", "unit": "mg·days/L"}, {"measurement": "CL/F, Mean ± SD", "setting": "[4]; human", "result": "0.312 ± 0.124", "unit": "L/day"}, {"measurement": "Cmax, Mean ± SD", "setting": "[4]; human", "result": "24300 ± 8610", "unit": "ng/mL"}, {"measurement": "MRT, Geometric Mean", "setting": "[4]; human", "result": "(18.2) [20.7] day"}, {"measurement": "MRT, Mean ± SD", "setting": "[4]; human", "result": "18.5 ± 3.84", "unit": "days"}, {"measurement": "t1/2z, Geometric Mean", "setting": "[4]; human", "result": "(8.37) [35.7] day"}, {"measurement": "t1/2z, Mean ± SD", "setting": "[4]; human", "result": "8.76 ± 3.12", "unit": "days"}, {"measurement": "Cmax, Mean ± SD", "setting": "[4]; human, sc, 150 mg", "result": "20400 ± 13500", "unit": "ng/mL"}, {"measurement": "AUC, Geometric Mean", "setting": "[4]", "result": "(318) [58.9]^b mg · day/l"}, {"measurement": "AUC, Mean ± SD", "setting": "[4]", "result": "357 ± 210", "unit": "mg·days/L"}, {"measurement": "AUCExt (percentage of extrapolation of AUC), Geometric Mean", "setting": "[4]", "result": "(22) [44.7] %"}, {"measurement": "AUCExt (percentage of extrapolation of AUC), Mean ± SD", "setting": "[4]", "result": "25 ± 11", "unit": "%"}, {"measurement": "tlast, Median", "setting": "[4]", "result": 69.00, "unit": "days"}, {"measurement": "Effect on free PCSK9 after alirocumab injection", "setting": "[2]; after the 1st and 3rd alirocumab injections", "result": "complete suppression"}, {"measurement": "Subjects tested ADA positive, %", "setting": "[5]", "result": 16.7, "unit": "%"}, {"measurement": "Subjects tested ADA positive, number", "setting": "[5]", "result": "Four out of 24"}, {"measurement": "Percent change in LDL-C from Day −1 baseline to Day 85", "setting": "[3]; 28 days after the 3rd administration of alirocumab", "result": "−47.03", "unit": "%"}, {"measurement": "Mean percent change in LDL-C from Day −1 baseline to Day 71", "setting": "[3]; 14 days after 3rd alirocumab dose, listed as Alirocumab 150 mg Q4W + placebo", "result": "−47.4", "unit": "%"}, {"measurement": "Mean percent change in LDL-C from Day −1 baseline to Day 71", "setting": "[3]; 14 days after 3rd alirocumab dose, listed as alirocumab alone", "result": "−47.39% and −47.4 (3.2) %"}, {"measurement": "Mean percent change in Apolipoprotein B from Day −1 baseline to Day 71", "setting": "[3]; [7]", "result": "−38.4", "unit": "%"}, {"measurement": "Mean percent change in HDL-C from Day −1 baseline to Day 71", "setting": "[3]; [7]", "result": 3.6, "unit": "%"}, {"measurement": "Mean percent change in Non-HDL-C from Day −1 baseline to Day 71", "setting": "[3]; [7]", "result": "−43.0", "unit": "%"}, {"measurement": "Mean percent change in Total cholesterol from Day −1 baseline to Day 71", "setting": "[3]; [7]", "result": "−31.5", "unit": "%"}, {"measurement": "LDL-C reductions, sustained over the 28-day dosing interval", "setting": "[3]; alirocumab 150 mg Q4W monotherapy, regardless of baseline", "result": "~48", "unit": "%"}, {"measurement": "Mean percent change in LDL-C from Day −29 baseline to Day 71", "setting": "[3]; [8]", "result": "−48.2", "unit": "%"}, {"measurement": "Mean percent change in LDL-C from Day −29 baseline to Day 71", "setting": "[3]; listed as alirocumab alone", "result": "−47.59% and −48.2 (2.3) %"}, {"measurement": "Mean percent change in Apolipoprotein B from Day −29 baseline to Day 71", "setting": "[3]; [9]", "result": "−39.1", "unit": "%"}, {"measurement": "Mean percent change in HDL-C from Day −29 baseline to Day 71", "setting": "[3]; [9]", "result": 3.3, "unit": "%"}, {"measurement": "Mean percent change in Non-HDL-C from Day −29 baseline to Day 71", "setting": "[3]; [9]", "result": "−43.0", "unit": "%"}, {"measurement": "Mean percent change in Total cholesterol from Day −29 baseline to Day 71", "setting": "[3]; [9]", "result": "−31.6", "unit": "%"}, {"measurement": "Median percent change in Lipoprotein (a) from Day −1 baseline to Day 71", "setting": "[3]; [10]", "result": "−11.7", "unit": "%"}, {"measurement": "Median percent change in Triglycerides from Day −1 baseline to Day 71", "setting": "[3]; [10]", "result": "−3.9", "unit": "%"}, {"measurement": "Median percent change in Lipoprotein (a) from Day −29 baseline to Day 71", "setting": "[3]; [11]", "result": "−20.3", "unit": "%"}, {"measurement": "Median percent change in Triglycerides from Day −29 baseline to Day 71", "setting": "[3]; [11]", "result": 5.7, "unit": "%"}, {"measurement": "Abdominal pain (TEAE), %", "setting": "[6]; N = 24", "result": "(8.3) %"}, {"measurement": "Gastroenteritis viral (TEAE), %", "setting": "[6]; N = 24", "result": "(0) %"}, {"measurement": "Headache (TEAE), %", "setting": "[6]; N = 24", "result": "(12.5) %"}, {"measurement": "Influenza (TEAE), %", "setting": "[6]; N = 24", "result": "(8.3) %"}, {"measurement": "Influenza-like illness (TEAE), %", "setting": "[6]; N = 24", "result": "(4.2) %"}, {"measurement": "Nasopharyngitis (TEAE), %", "setting": "[6]; N = 24", "result": "(12.5) %"}, {"measurement": "Patients with any TEAEs, %", "setting": "[6]; [8]", "result": "(50.0) %"}, {"measurement": "Patients with any TEAEs, %", "setting": "[6]; listed as alirocumab alone", "result": 50.0, "unit": "%"}, {"measurement": "Tolerability", "setting": "[6]; alone or on top of ezetimibe or fenofibrate, 150 mg Q4W for 3 administrations, healthy subjects", "result": "well tolerated"}]}
